B1: R. norvegicus Nup54 (aa 346–494), entire predicted α-helical part (domain or fragment)
chain: MTKQHQTRLDIISEDISELQKNQTTTMAKIAQYKRKLMDLSHRTLQVLIKQEIQRKSGYAIQAEEEQLRVQLDTIQGELNAPTQFKGRLNELMSQIRMQNHFGAVKSEEKYYIDADLLREIKQHLKQQQEGLSHLISIIKDDLEDIKLV

Legend:
[1] = target: B1; test: SEC
[2] = target: the molecule itself; test: AUC
[3] = target: T1, R. norvegicus Nup54 of the published Nup58-Nup54 crystal construct (aa 456–494) (R. norvegicus, UniProt P70582 456-494); test: AUC
T1 chain: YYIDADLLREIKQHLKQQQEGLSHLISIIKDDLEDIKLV

[4] = target: T2, R. norvegicus Nup62 (aa 322–525), entire predicted α-helical part (R. norvegicus, UniProt P17955 322-525); test: SEC
T2 sequence: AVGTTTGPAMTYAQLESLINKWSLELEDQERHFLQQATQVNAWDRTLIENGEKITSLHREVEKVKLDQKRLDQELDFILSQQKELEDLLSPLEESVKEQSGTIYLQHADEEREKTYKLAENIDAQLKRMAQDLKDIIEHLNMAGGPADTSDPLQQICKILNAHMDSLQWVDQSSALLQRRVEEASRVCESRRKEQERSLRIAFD

Binder | stoichiometry N [1] | Kd [2] | further results
R. norvegicus Nup58 (aa 239–415), entire predicted α-helical part (domain or fragment) not shown | 1 | – | –
long rnNup58-Nup54-Nup62 complex (complex) chain 1: not shown chain 2: MTKQHQTRLDIISEDISELQKNQTTTMAKIAQYKRKLMDLSHRTLQVLIKQEIQRKSGYAIQAEEEQLRVQLDTIQGELNAPTQFKGRLNELMSQIRMQNHFGAVKSEEKYYIDADLLREIKQHLKQQQEGLSHLISIIKDDLEDIKLV chain 3: AVGTTTGPAMTYAQLESLINKWSLELEDQERHFLQQATQVNAWDRTLIENGEKITSLHREVEKVKLDQKRLDQELDFILSQQKELEDLLSPLEESVKEQSGTIYLQHADEEREKTYKLAENIDAQLKRMAQDLKDIIEHLNMAGGPADTSDPLQQICKILNAHMDSLQWVDQSSALLQRRVEEASRVCESRRKEQERSLRIAFD | – | 52 µM | –
short rnNup58-Nup54-Nup62 complex (complex) chain 1: APADYFRVLVQQFEVQLQQYRQQIEELENHLATQANNSHITPQDLSMAMQKIYQTFVALAAQLQSIHENVKVLKEQYLSYRKMFLGDAG chain 2: MTKQHQTRLDIISEDISELQKNQTTTMAKIAQYKRKLMDLSHRTLQVLIKQEIQRKSGYAIQAEEEQLRVQLDTIQGELNAPTQFKGRLNELMSQIRMQNHFGAVKSEEKYYIDADLLREIKQHLKQQQEGLSHLISIIKDDLEDIKLV chain 3: AVGTTTGPAMTYAQLESLINKWSLELEDQERHFLQQATQVNAWDRTLIENGEKITSLHREVEKVKLDQKRLDQELDFILSQQKELEDLLSPLEESVKEQSGTIYLQHADEEREKTYKLAENIDAQLKRMAQDLKDIIEHLNMAGGPADTSDPLQQICKILNAHMDSLQWVDQSSALLQRRVEEASRVCESRRKEQERSLRIAFD | – | 49.3 µM | –
R. norvegicus Nup58 (aa 327–415), N-terminally truncated (domain or fragment) APADYFRVLVQQFEVQLQQYRQQIEELENHLATQANNSHITPQDLSMAMQKIYQTFVALAAQLQSIHENVKVLKEQYLSYRKMFLGDAG | 1 | – | –
R. norvegicus Nup58 of the published Nup58-Nup54 crystal construct (aa 327–412) (domain or fragment) APADYFRVLVQQFEVQLQQYRQQIEELENHLATQANNSHITPQDLSMAMQKIYQTFVALAAQLQSIHENVKVLKEQYLSYRKMFLG | – | – | stoichiometry N [3]: 2 Nup58:Nup54
B1 | – | – | stoichiometry N [4]: 1

— PMC4004597 (Molecular Biology of the Cell, 2014)
